Laboratory results: the supplement of paper PMC9732359
± gives the uncertainty stated by the source.

test: protein stability index of a GFP-peptide fusion (yeast GPS) (PSI 1-4); higher = more stable; sorted into four equal gates, so the index is relative within each strain; details: pdr5∆
How it was run: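 Peptides tiling yeast proteins in 17-residue segments were fused downstream of GFP, with Cherry expressed from the same plasmid. As a pooled library in yeast, mid-log cultures grown in leucine-free medium were sorted into four equal gates by GFP/Cherry fluorescence ratio. Gate plasmids were PCR-amplified and Illumina-sequenced, and barcodes linked reads to strains. Each peptide received a protein stability index equal to the sum of each gate's read frequency times its gate number.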

Sequence | protein stability index
SLFTYFREAIVATEPLL [PRP8] | 1.83 ± 0.051
SLISVLEASLNSITKDN [YJL039C/NUP192] | 2.24 ± 0.038
SLKCTDPYELKGEVVLV [ITC1] | 3.1 ± 0.24

same assay, conditions: san1∆

Sequence | protein stability index
SALELVGQLNKVVDQLF [RPN6] | 2.82 ± 0.059
SANGYLNATTAMDLAQM [BRR2] | 3.15 ± 0.088
SASFSLKNGDKPHMLKF [RPL6A] | 2.89 ± 0.06
SASLFKQRKNPRRIAWT [RPL24A] | 2.96 ± 0.087
SASSLVITALKEPPRDR [RPL12A] | 2.66 ± 0.071
SATPNAAAFSQQQNASS [GAL11] | 2.89 ± 0.035
SATSTTEQTKSKNPLSL [YLR335W/NUP2] | 2.58 ± 0.055
SCHGHFGHLKLALPVFH [RPO31] | 1.23 ± 0.1
SDDIAENDNLDNVSKNA [YCG1] | 3.25 ± 0.063
SDEEESVLDEQEQYQTN [SNU114] | 3.25 ± 0.11
SDIVLDKKVTLITSEMF [SIN4] | 1.79 ± 0.11
SDKESNAYGFIEWCSRC [YJL039C/NUP192] | 2.97 ± 0.053
SDKQRRLLAKDAMIAQR [DIS3] | 2.36 ± 0.064
SDLLVAPPLENENSNCL [YML103C/NUP188] | 3.25 ± 0.14
SDNISRKYEISFGKIYV [RPB2] | 2.78 ± 0.068
SDNSEEEEVDIDMDKLN [RRP43] | 3.4 ± 0.077
SDNVYLKLLVKLYTFLA [RPL18A] | 1.67 ± 0.084
SDPESERPAIEFETPTF [RPN14] | 3.02 ± 0.047
SDSNANAAVAGVANTDT [SWI3] | 3.22 ± 0.044
SDSSKPAFSFGTKSNEK [YJL041W/NSP1] | 2.79 ± 0.076
SDTLKEFKIEQNNEQNP [YDL116W/NUP84] | 2.8 ± 0.1
SDVSDFEGWGHEYIRHL [RPN1] | 3.17 ± 0.14
SEDHSFRKIKLRVDEVQ [RPS1A] | 3.1 ± 0.071
SEDHSFRKVKLRVDEVQ [RPS1B] | 2.66 ± 0.091
SEEINQYVTQIEQEKQE [PRE6] | 2.59 ± 0.085

Sequence | protein stability index
SEEVDDLSMVPKMKDEE [SNF2] | 3.29 ± 0.12
SEFANQNQGGAQAPFDI [ROX3] | 3.28 ± 0.22
SEKNKRQSKSSGKSNTS [ITC1] | 2.98 ± 0.073
SENAPSASSKEFNFTNL [YAR002W/NUP60] | 2.88 ± 0.051
SENRNNIKSSISNGNLA [YOR098C/NUP1] | 2.96 ± 0.22
SEQKMKEDADLKRMEIL [SIR4] | 3.49 ± 0.059
SERDSKDRYINGDKKVD [YMR129W/POM152] | 3.15 ± 0.091
SETPLQKTVNLKNIMKV [RPN4] | 2.56 ± 0.11
SETREKELESIDVLLEQ [RPB4] | 2.86 ± 0.11
SEVANNGLIISWSNGKI [RRP42] | 3.03 ± 0.091
SEYKVAFPHLYNSRPRS [PRP8] | 2.85 ± 0.086
SFAKLVPCEGKDVTQGL [SMC2] | 1.5 ± 0.23
SFATATCVTCHWNLPGE [SIR2] | 1.9 ± 0.084
SFDVAISTACPRLDDVV [SMC4] | 3.1 ± 0.075
SFFHQSNMQKSLLPYYH [RPN3] | 1.63 ± 0.07
SFGNREEFINKLVKSMN [RPL7A] | 2.29 ± 0.18
SFLEGSKALNSILESSM [RGR1] | 3.09 ± 0.21
SFLESVIRDSVTYTEHA [HHF1] | 2.17 ± 0.058
SFLGYLRYVKQIEGPFL [ISW2] | 2.45 ± 0.053
SFPILDQCVGQVGLNFE [YMR129W/POM152] | 3.1 ± 0.056
SFRIKQKMAKAKKQNRP [RPL39] | 2.93 ± 0.091
SFSLTTFSPSGKLGQID [PRE8] | 3.01 ± 0.074
SFSLTVSKEQFLKDADV [YJL039C/NUP192] | 1.54 ± 0.11
SFTLLNQLSQTNKLLFK [NUT1] | 2.71 ± 0.077
SFTYELKQHNQNNLPPN [BRR2] | 2.78 ± 0.1

Sequence | protein stability index
SFVFGQAAAKPSLEKSS [YLR335W/NUP2] | 2.21 ± 0.14
SGEDTNVGLPILKSLKN [YOR098C/NUP1] | 2.85 ± 0.069
SGGNNTATIINNESSDD [PCI8] | 2.69 ± 0.092
SGHDDLVHDVVYDFYGR [YGL100W/SEH1] | 2.39 ± 0.089
SGKARICIVGGYDDFQE [FAS2] | 3.36 ± 0.11
SGQTPVQSKARYTVRTF [RPL11A] | 1.72 ± 0.13
SHDKKTKCSTVVKASEL [SRP14] | 3.05 ± 0.17
SHSLALNEITNSKVNKL [DSN1] | 2.48 ± 0.035
SHTDQPANVLLVQSLND [NNF1] | 2.23 ± 0.18
SIFAMGLCGAGTNNARL [RPN1] | 1.24 ± 0.094
SIFEDAIKELNYNRIAK [NUT1] | 3.07 ± 0.075
SIGSDILTAEKMRGNGN [RRP4] | 3.38 ± 0.05
SIIGNKNNNYTWEECVF [REC8] | 2.73 ± 0.085
SILDDIKLSLKDKTKNI [SMC4] | 2.8 ± 0.06
SILEEKIAVLNNDKREI [SMC1] | 3.25 ± 0.051
SILGKFCPIVEEIVSNS [YCS4] | 1.6 ± 0.14
SIMPDLYFYRNPEEVEQ [RPS0B] | 2.94 ± 0.063
SIMVELKLPLEINYAFS [SIR3] | 1.55 ± 0.12
SIPNLFPTDLEIFQLFT [SWI1] | 2.27 ± 0.12
SIVEECDARFDEKTIEE [RPC17] | 3.09 ± 0.11
SIVHINSQERVQDLGSA [SIR2] | 2.99 ± 0.067
SKAQQKTAEQVAAERAA [RPL7A] | 2.74 ± 0.054
SKASMQKEQNVNNRDSE [YCS4] | 2.05 ± 0.076
SKDGLPNKVKTEDIRIR [RRP6] | 2.76 ± 0.067
SKDVQQIDYKLESFQAV [RPS7A] | 3.08 ± 0.054

Sequence | protein stability index
SKEDYETLKRDRKQSQA [ARP7] | 2.57 ± 0.093
SKEETVDFIKHSLSQAI [PRE3] | 2.66 ± 0.056
SKEFSAYVSGLFEIYRD [YJR042W/NUP85] | 2.7 ± 0.19
SKELRAQYGIKALPIRR [RPL26A] | 3.49 ± 0.14
SKKGSLENNIREFPEYF [RPL10] | 3.29 ± 0.057
SKKISNTAAALVSLLDE [YAR002W/NUP60] | 2.92 ± 0.052
SKKIVPSPKKVAIDQDK [SIR4] | 2.59 ± 0.06
SKKRQAEKLVPLPICHA [YML031W/NDC1] | 2.39 ± 0.087
SKLLVPQKNVKIQVVDR [PRE10] | 2.53 ± 0.099
SKMSDESFAELMTKLNS [RPC17] | 3.09 ± 0.098
SKQVTDYYQSIYAKYGA [FAS2] | 2.54 ± 0.057
SKRSKIDIINKLILHAI [YML103C/NUP188] | 1.04 ± 0.13
SKSPSEWQDIIHQREQE [CSE2] | 3.25 ± 0.085
SKTWETYEMRIHKRYID [RPS20] | 1.84 ± 0.18
SKVTVPPSKHSTLTLSD [ESC2] | 2.9 ± 0.071
SKYCEKSLPLLITVMEK [YCS4] | 2.12 ± 0.067
SKYLIKQIDIPNFNVEI [ECM29] | 2.57 ± 0.072
SLAVRSLQDRSSLVRRN [YCS4] | 2.35 ± 0.045
SLFHTAVSVANGFMHAG [RPN2] | 1.29 ± 0.25
SLFTYFREAIVATEPLL [PRP8] | 2.73 ± 0.063
SLISVLEASLNSITKDN [YJL039C/NUP192] | 2.31 ± 0.048
SLKCTDPYELKGEVVLV [ITC1] | 2.44 ± 0.2
